Among the data in patent US20140349341 are activity values, retold here.

The subject of data set [1] is Mgat1 ZFN left monomer (CompoZr, FokI fusion) (synthetic construct). The data set can be described thus: cell_activity. The conditions noted are these: Cel-I assay day 3 in CHO cells (9.6% day 10); value is for ZFN pair; spacer ccagca.
The test system of data set [2] is Mgat1 ZFN right monomer (CompoZr, FokI fusion) (synthetic construct). The experiment in a line: cell_activity. The conditions noted are these: Cel-I assay day 3 in CHO cells (9.6% day 10); value is for ZFN pair; spacer ccagca.

“AACAAGTTCAAGTTC (double strand) [CHO Mgat1 ZFN left half-site]”: the activity in data set [1] amounted to 8.8%.
In the case of “GCTGTGGTAGTGGAGGAC (double strand) [CHO Mgat1 ZFN right half-site]”, the activity in data set [2] amounted to 8.8%.
